Sequences and labels used below:
B1: 4x1mer[260:] released from MBP-4x1mer[260:] by TEV protease (domain or fragment, human, UniProt Q96Q06 260-292, looked up)
chain: SKTVLTGTKDTVCSGVTGAMNVAKGTIQTGVDTSKTVLTGTKDTVCSGVTGAMNVAKGTIQTGVDTSKTVLTGTKDTVCSGVTGAMNVAKGTIQTGVDTSKTVLTGTKDTVCSGVTGAMNVAKGTIQTGVDT
B2: PLIN4-4mer[326:] (domain or fragment, human, UniProt Q96Q06 326-457, looked up)
chain: SKTVLTGTKDTVCSGVTGAMNVAKGTIQTGVDTTKTVLTGTKNTVCSGVTGAVNLAKEAIQGGLDTTKSMVMGTKDTMSTGLTGAANVAKGAMQTGLNTTQNIATGTKDTVCSGVTGAMNLARGTIQTGVDT
B3: PLIN4-4mer[689:] (domain or fragment, human, UniProt Q96Q06 689-820, looked up)
chain: AKTVLTGTKDTVTTGLMGAVNVAKGTVQTSVDTTKTVLTGTKDTVCSGVTGAANVAKGAIQGGLDTTKSVLTGTKDAVSTGLTGAVKLAKGTVQTGMDTTKTVLTGTKDAVCSGVTGAANVAKGAVQMGVDT
B4: 1mer[260:] (peptide, UniProt Q96Q06 260-292, looked up)
peptide: SKTVLTGTKDTVCSGVTGAMNVAKGTIQTGVDT
B5: PLIN4-4mer[557:] (domain or fragment, human, UniProt Q96Q06 557-688, looked up)
chain: TKSVVIGTKDTMSTGLTGAANVAKGAVQTGVDTAKTVLTGTKDTVTTGLVGAVNVAKGTVQTGMDTTKTVLTGTKDTIYSGVTSAVNVAKGAVQTGLKTTQNIATGTKNTFGSGVTSAVNVAKGAAQTGVDT
B6: PLIN4-20mer (domain or fragment, human, UniProt Q96Q06 260-919, looked up)
chain: SKTVLTGTKDTVCSGVTGAMNVAKGTIQTGVDTSKTVLTGTKDTVCSGVTGAMNVAKGTIQTGVDTSKTVLTGTKDTVCSGVTGAMNVAKGTIQTGVDTTKTVLTGTKNTVCSGVTGAVNLAKEAIQGGLDTTKSMVMGTKDTMSTGLTGAANVAKGAMQTGLNTTQNIATGTKDTVCSGVTGAMNLARGTIQTGVDTTKIVLTGTKDTVCSGVTGAANVAKGAVQGGLDTTKSVLTGTKDAVSTGLTGAVNVAKGTVQTGVDTTKTVLTGTKDTVCSGVTSAVNVAKGAVQGGLDTTKSVVIGTKDTMSTGLTGAANVAKGAVQTGVDTAKTVLTGTKDTVTTGLVGAVNVAKGTVQTGMDTTKTVLTGTKDTIYSGVTSAVNVAKGAVQTGLKTTQNIATGTKNTFGSGVTSAVNVAKGAAQTGVDTAKTVLTGTKDTVTTGLMGAVNVAKGTVQTSVDTTKTVLTGTKDTVCSGVTGAANVAKGAIQGGLDTTKSVLTGTKDAVSTGLTGAVKLAKGTVQTGMDTTKTVLTGTKDAVCSGVTGAANVAKGAVQMGVDTAKTVLTGTKDTVCSGVTGAANVAKGAVQTGLKTTQNIATGTKNTLGSGVTGAAKVAKGAVQGGLDTTKSVLTGTKDAVSTGLTGAVNLAKGTVQTGVDT

The first data set deals with the molecule itself. Put plainly: thioflavin T.
On to B1, for which the binding result is “binds”.

B2: the binding result is given as “binds”. B3: the binding result is “binds”.

Regarding B4, the binding result is given as “binds”. Regarding B5, the binding result was “binds”.

A further data set concerns the molecule itself. Put plainly: negative-stain EM of fibrils.
As for B6, the binding result was “binds”.

The values above are taken from article doi:10.1101/2025.06.03.657256 (bioRxiv, 2025).
